Experimental data as given in US20260337278 (published 2026).
Changes are numbered by the printed parent chain.

B1: SI-95X53 (antibody)
chain 1: not shown
chain 2: DIVMTQSPSSVSLSLGDRVTITCHSSQDINSNIGWLQQKPGKAFKGLIYHGTNLDDGVPSRFSGSGSGADYTLTISSLQAEDFATYYCVQYAQFPWTFGPGTKLEIKRTVAAPSVFIFPPSDEQLKSGTASVVCLLNNFYPREAKVQWKVDNALQSGNSQESVTEQDSKDSTYSLSSTLTLSKADYEKHKVYACEVTHQGLSSPVTKSFNRGEC
B2: SI-95X48 (antibody)
chain 1: not shown
chain 2: EIVLTQSPSTLSVSPGERATFSCRASQSIGTNIHWYQQKPGKPPRLLIKYASESISGIPDRFSGSGSGTEFTLTISSVQSEDFAVYYCQQNNNWPTTFGPGTKLTVLRTVAAPSVFIFPPSDEQLKSGTASVVCLLNNFYPREAKVQWKVDNALQSGNSQESVTEQDSKDSTYSLSSTLTLSKADYEKHKVYACEVTHQGLSSPVTKSFNRGEC
B3: SI-95X62 (antibody)
chain 1: not shown
chain 2: EIVLTQSPSTLSVSPGERATFSCRASQSIGTNIHWYQQKPGKPPRLLIKYASESISGIPDRFSGSGSGTEFTLTISSVQSEDFAVYYCQQNFNWPTTFGPGTKLTVLRTVAAPSVFIFPPSDEQLKSGTASVVCLLNNFYPREAKVQWKVDNALQSGNSQESVTEQDSKDSTYSLSSTLTLSKADYEKHKVYACEVTHQGLSSPVTKSFNRGECGGGGSGGGGGSGGGGSGGGGSQVQLQESGPSLVKPSQTLSLTCTVSGYSITSDFAWNWIRQFPGRKLEWMGYISYSGNTRYNPSLKSRFTISRDTSKNQFYLKLRSVTIADTAVYYCVTAGRGFPYWGQGTLVTVSSGGGGSGGGGSGGGGSDIVMTQSPSSVSLSLGDRVTITCHSSQDINSNIGWLQQKPGKAFKGLIYHGTNLDDGVPSRFSGSGSGADYTLTISSLQAEDFATYYCVQYAQFPWTFGPGTKLEIK
B4: SI-95X61 (antibody)
chain 1: not shown
chain 2: B3 chain 2 with F92N
B5: SI-95X67 (antibody)
chain 1: not shown
chain 2: DILMTQSPSSMSVSLGDTVSITCHSSQDINSNIGWLQQRPGKSFKGLIYHGTNLDDEVPSRFSGSGSGADYSLTISSLESEDFADYYCVQYAQFPWTFGGGTKLEIKRTVAAPSVFIFPPSDEQLKSGTASVVCLLNNFYPREAKVQWKVDNALQSGNSQESVTEQDSKDSTYSLSSTLTLSKADYEKHKVYACEVTHQGLSSPVTKSFNRGEC
B6: SI-95X65 (antibody)
chain 1: not shown
chain 2: B5 chain 2
B7: SI-95X66 (antibody)
chain 1: not shown
chain 2: B5 chain 2
B8: SI-95X24 (antibody)
chain 1: not shown
chain 2: DVQLQESGPSLVKPSQSLSLTCTVTGYSITSDFAWNWIRQFPGNKLEWMGYISYSGNTRYNPSLKSRISITRDTSKNQFFLQLNSVTIEDTATYYCVTAGRGFPYWGQGTLVTVSAGGGGSGGGGSGGGGSDILMTQSPSSMSVSLGDTVSITCHSSQDINSNIGWLQQRPGKSFKGLIYHGTNLDDEVPSRFSGSGSGADYSLTISSLESEDFADYYCVQYAQFPWTFGGGTKLEIKGGGGSGSGSGGGGGSGGGGSGGGGSDIQMTQSPSSLSASVGDRVTITCRSSQNIVHSNGNTYLDWYQQTPGKAPKLLIYKVSNRFSGVPSRFSGSGSGTDFTFTISSLQPEDIATYYCFQYSHVPWTFGQGTKLQITRTVAAPSVFIFPPSDEQLKSGTASVVCLLNNFYPREAKVQWKVDNALQSGNSQESVTEQDSKDSTYSLSSTLTLSKADYEKHKVYACEVTHQGLSSPVTKSFNRGEC
B9: SI-95X18 (antibody)
chain 1: not shown
chain 2: DIQMTQSPSSLSASVGDRVTITCRSSQNIVHSNGNTYLDWYQQTPGKAPKLLIYKVSNRFSGVPSRFSGSGSGTDFTFTISSLQPEDIATYYCFQYSHVPWTFGQGTKLQITRTVAAPSVFIFPPSDEQLKSGTASVVCLLNNFYPREAKVQWKVDNALQSGNSQESVTEQDSKDSTYSLSSTLTLSKADYEKHKVYACEVTHQGLSSPVTKSFNRGEC
B10: SI-95X31 (antibody)
chain 1: not shown
chain 2: DIQMTQSPSSLSASVGDRVTITCRSSQNIVHSNGNTYLDWYQQTPGKAPKLLIYKVSNRFSGVPSRFSGSGSGTDFTFTISSLQPEDIATYYCFQYSHVPWTFGQGTKLQITRTVAAPSVFIFPPSDEQLKSGTASVVCLLNNFYPREAKVQWKVDNALQSGNSQESVTEQDSKDSTYSLSSTLTLSKADYEKHKVYACEVTHQGLSSPVTKSFNRGECGGGGSGGGGSGSGSGGGGGSGGGGSGGGGSDVQLQESGPSLVKPSQSLSLTCTVTGYSITSDFAWNWIRQFPGNKLEWMGYISYSGNTRYNPSLKSRISITRDTSKNQFFLQLNSVTIEDTATYYCVTAGRGFPYWGQGTLVTVSAGGGGSGGGGSGGGGSDILMTQSPSSMSVSLGDTVSITCHSSQDINSNIGWLQQRPGKSFKGLIYHGTNLDDEVPSRFSGSGSGADYSLTISSLESEDFADYYCVQYAQFPWTFGGGTKLEIK
B11: SI-95X27 (antibody)
chain 1: not shown
chain 2: DILMTQSPSSMSVSLGDTVSITCHSSQDINSNIGWLQQRPGKSFKGLIYHGTNLDDEVPSRFSGSGSGADYSLTISSLESEDFADYYCVQYAQFPWTFGGGTKLEIKGGGGSGGGGSGGGGSDVQLQESGPSLVKPSQSLSLTCTVTGYSITSDFAWNWIRQFPGNKLEWMGYISYSGNTRYNPSLKSRISITRDTSKNQFFLQLNSVTIEDTATYYCVTAGRGFPYWGQGTLVTVSAGGGGSGSGSGGGGGSGGGGSGGGGSDIQMTQSPSSLSASVGDRVTITCRSSQNIVHSNGNTYLDWYQQTPGKAPKLLIYKVSNRFSGVPSRFSGSGSGTDFTFTISSLQPEDIATYYCFQYSHVPWTFGQGTKLQITRTVAAPSVFIFPPSDEQLKSGTASVVCLLNNFYPREAKVQWKVDNALQSGNSQESVTEQDSKDSTYSLSSTLTLSKADYEKHKVYACEVTHQGLSSPVTKSFNRGEC
B12: SI-95X3 (antibody)
chain 1: not shown
chain 2: B5 chain 2
B13: SI-95X35 (antibody)
chain 1: not shown
chain 2: B5 chain 2
B14: SI-95X29 (antibody)
chain 1: not shown
chain 2: DIQMTQSPSSLSASVGDRVTITCRSSQNIVHSNGNTYLDWYQQTPGKAPKLLIYKVSNRFSGVPSRFSGSGSGTDFTFTISSLQPEDIATYYCFQYSHVPWTFGQGTKLQITRTVAAPSVFIFPPSDEQLKSGTASVVCLLNNFYPREAKVQWKVDNALQSGNSQESVTEQDSKDSTYSLSSTLTLSKADYEKHKVYACEVTHQGLSSPVTKSFNRGECSGSGSGGGGGSGGGGSGGGGSDVQLQESGPSLVKPSQSLSLTCTVTGYSITSDFAWNWIRQFPGNKLEWMGYISYSGNTRYNPSLKSRISITRDTSKNQFFLQLNSVTIEDTATYYCVTAGRGFPYWGQGTLVTVSAGGGGSGGGGSGGGGSDILMTQSPSSMSVSLGDTVSITCHSSQDINSNIGWLQQRPGKSFKGLIYHGTNLDDEVPSRFSGSGSGADYSLTISSLESEDFADYYCVQYAQFPWTFGGGTKLEIK
B15: SI-95X30 (antibody)
chain 1: not shown
chain 2: DIQMTQSPSSLSASVGDRVTITCRSSQNIVHSNGNTYLDWYQQTPGKAPKLLIYKVSNRFSGVPSRFSGSGSGTDFTFTISSLQPEDIATYYCFQYSHVPWTFGQGTKLQITRTVAAPSVFIFPPSDEQLKSGTASVVCLLNNFYPREAKVQWKVDNALQSGNSQESVTEQDSKDSTYSLSSTLTLSKADYEKHKVYACEVTHQGLSSPVTKSFNRGECGGGGSGSGSGGGGGSGGGGSGGGGSDVQLQESGPSLVKPSQSLSLTCTVTGYSITSDFAWNWIRQFPGNKLEWMGYISYSGNTRYNPSLKSRISITRDTSKNQFFLQLNSVTIEDTATYYCVTAGRGFPYWGQGTLVTVSAGGGGSGGGGSGGGGSDILMTQSPSSMSVSLGDTVSITCHSSQDINSNIGWLQQRPGKSFKGLIYHGTNLDDEVPSRFSGSGSGADYSLTISSLESEDFADYYCVQYAQFPWTFGGGTKLEIK

target: T1, EGFR (wild-type, His-tagged or biotinylated) (human, UniProt P00533); experiment: BLI

Kd	Binder
18.2 nM	B1
25.5 nM	B2
8.16 nM	B3
4.89 nM	B4
7.06 nM	B5
3.07 nM	B6
4.65 nM	B7

target: T1, EGFR (wild-type, His-tagged or …); experiment: BLI; remark: another data set of the same source

Kd	Binder
7.94 nM	B8
4.17 nM	B9
10.5 nM	B10
10.7 nM	B11
0.68 nM	B12
0.686 nM	B13
10.1 nM	B14
8.84 nM	B15

target: T2, EGFRvIII (human, UniProt P00533); experiment: BLI

Kd	Binder
1.28 nM	B1
0.404 nM	B2
1.02 nM	B3
0.573 nM	B4
1.24 nM	B5
0.804 nM	B6
0.576 nM	B7

target: T2, EGFRvIII; experiment: BLI; remark: another data set of the same source

Kd	Binder
1.45 nM	B8
0.593 nM	B9
1.08 nM	B10
0.507 nM	B11
0.375 nM	B12
0.628 nM	B13
1.12 nM	B14
1.24 nM	B15
